This experiment has as its target HGF receptor c-Met on uninfected HUVECs (human) (UniProt P08581). The experiment in a line: cell-based or functional assay.
UniProt P08581, sequence (P08581 25-1390): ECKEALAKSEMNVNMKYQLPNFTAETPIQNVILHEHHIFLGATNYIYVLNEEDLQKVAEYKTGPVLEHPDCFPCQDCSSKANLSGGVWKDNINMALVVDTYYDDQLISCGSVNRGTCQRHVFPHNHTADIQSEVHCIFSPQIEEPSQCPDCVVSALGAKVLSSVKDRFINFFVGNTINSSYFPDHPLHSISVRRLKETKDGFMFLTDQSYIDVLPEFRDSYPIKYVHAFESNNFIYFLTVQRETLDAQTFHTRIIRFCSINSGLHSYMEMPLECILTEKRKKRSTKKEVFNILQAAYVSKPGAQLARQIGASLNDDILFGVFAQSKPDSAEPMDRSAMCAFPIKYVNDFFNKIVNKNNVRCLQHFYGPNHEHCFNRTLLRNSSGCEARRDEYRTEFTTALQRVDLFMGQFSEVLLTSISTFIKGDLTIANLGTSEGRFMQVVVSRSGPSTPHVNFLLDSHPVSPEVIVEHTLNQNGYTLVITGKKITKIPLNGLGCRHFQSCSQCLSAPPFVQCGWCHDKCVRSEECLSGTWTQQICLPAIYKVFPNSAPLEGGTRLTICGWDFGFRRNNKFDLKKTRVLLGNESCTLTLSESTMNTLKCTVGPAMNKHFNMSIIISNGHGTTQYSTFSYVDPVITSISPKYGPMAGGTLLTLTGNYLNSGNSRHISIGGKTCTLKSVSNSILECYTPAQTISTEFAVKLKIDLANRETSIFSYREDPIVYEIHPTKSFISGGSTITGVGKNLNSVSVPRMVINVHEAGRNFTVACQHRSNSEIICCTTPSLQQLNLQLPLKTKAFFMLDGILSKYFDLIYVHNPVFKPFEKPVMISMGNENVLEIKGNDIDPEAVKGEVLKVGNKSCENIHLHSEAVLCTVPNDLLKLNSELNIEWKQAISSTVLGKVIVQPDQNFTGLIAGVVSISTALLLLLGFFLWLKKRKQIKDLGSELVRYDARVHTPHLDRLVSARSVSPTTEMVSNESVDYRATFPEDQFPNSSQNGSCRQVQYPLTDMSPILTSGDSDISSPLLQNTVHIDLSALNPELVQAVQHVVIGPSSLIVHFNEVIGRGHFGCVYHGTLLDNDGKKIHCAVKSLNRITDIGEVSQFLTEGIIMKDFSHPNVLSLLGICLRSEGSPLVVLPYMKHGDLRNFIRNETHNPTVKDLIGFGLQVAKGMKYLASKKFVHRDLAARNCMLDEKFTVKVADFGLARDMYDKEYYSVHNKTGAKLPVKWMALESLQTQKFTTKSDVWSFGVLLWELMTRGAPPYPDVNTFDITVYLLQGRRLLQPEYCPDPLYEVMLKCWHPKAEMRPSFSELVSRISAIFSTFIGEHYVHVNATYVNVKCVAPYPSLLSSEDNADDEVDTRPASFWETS

“hepatocyte growth factor (HGF) in conditioned medium from Ad-Egr3 infected HUVECs (from UniProt P14210 32-728) (ligand)” yielded a c-Met receptor phosphorylation on tyrosine 1234/1235 (PathScan Phospho-Met Sandwich ELISA), fold increase against Ad-lacZ of 1.8 fold.

Values taken from patent publication US20120253013A1.
